Molecular target: full-length hAPE1 (human apurinic/apyrimidinic endonuclease 1), recombinant, as immobilised for SPR (human, UniProt P27695 1-318)
Experiment: SPR

full-length hAPE1 (human apurinic/apyrimidinic endonuclease 1), recombinant, as immobilised for SPR, sequence (P27695 whole entry): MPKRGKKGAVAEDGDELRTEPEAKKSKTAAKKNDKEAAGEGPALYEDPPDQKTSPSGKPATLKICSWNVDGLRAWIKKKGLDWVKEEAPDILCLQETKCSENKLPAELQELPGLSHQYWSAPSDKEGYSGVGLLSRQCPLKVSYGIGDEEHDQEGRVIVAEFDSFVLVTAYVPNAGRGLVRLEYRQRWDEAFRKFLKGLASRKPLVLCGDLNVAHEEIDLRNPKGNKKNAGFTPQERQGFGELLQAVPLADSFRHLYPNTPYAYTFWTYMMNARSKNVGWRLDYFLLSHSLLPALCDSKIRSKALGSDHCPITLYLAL

B1: N-terminal domain of NPM1 (residues 1-117) (domain or fragment, UniProt P06748 1-117, looked up)
chain: MEDSMDMDMSPLRPQNYLFGCELKADKDYHFKVDNDENEHQLSLRTVSLGAGAKDELHIVEAEAMNYEGSPIKVTLATLKMSVQPTVSLGGFEITPPVVLRLKCGSGPVHISGQHLV
Kd: 668 ± 5 nM
